Source: US20030215453A1

Assays:
[1] = molecular target: VpreB1 protein (Homo sapiens (Human)) (UniProt P12018); assay: flow cytometry, 1 ug FITC-conjugated antibody on 1x10^6 HT cells (no detectable VpreB1 mRNA in Table 1; in effect a VpreB1-negative line)
[2] = molecular target: VpreB1 protein (Homo sapiens (Human)) (UniProt P12018); assay: flow cytometry, 1 ug FITC-conjugated antibody on 1x10^6 GA-10 cells (endogenous VpreB1)
[3] = molecular target: VpreB1 protein (Homo sapiens (Human)) (UniProt P12018); assay: flow cytometry, 1 ug FITC-conjugated antibody on 1x10^6 CA46 cells (endogenous VpreB1)

Chain of UniProt P12018 (P12018 20-145 limits assumed): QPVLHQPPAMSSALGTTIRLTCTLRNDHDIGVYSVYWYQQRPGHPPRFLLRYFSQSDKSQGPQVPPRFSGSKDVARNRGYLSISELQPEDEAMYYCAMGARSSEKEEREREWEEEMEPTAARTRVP

% of cells surface labeled (gate M1) [1]: 3%
% of cells surface labeled (gate M1) [2]: 91%
% of cells surface labeled (gate M1) [3]: 69%
Substance: FITC-conjugated anti-VpreB1 monoclonal antibody (Serotec, Raleigh, N.C.)
